What was measured:
[1] = biological target: T1, synthetic LAP2 peptide (Lp1A acceptor peptide 2)
T1 chain: GFEIDKVWYDLDA

[2] = biological target: HP1 with LAP2 fused to its C-terminus (LAP2-C)
[3] = biological target: T2, LAP1 (rationally designed Lp1A acceptor peptide)
T2 chain: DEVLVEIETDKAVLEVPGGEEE

[4] = biological target: LAP2-HP1 fusion protein (LAP2 at the N-terminus of HP1)

B1: Escherichia coli lipoic acid ligase (Lp1A) (protein)
chain: MSTLRLLISDSYDPWFNLAVEECIFRQMPATQRVLFLWRNADTVVIGRAQNPWKECNTRRMEEDNVRLARRSSGGGAVFHDLGNTCFTFMAGKPEYDKTISTSIVLNALNALGVSAEASGRNDLVVKTVEGDRKVSGSAYRETKDRGFHHGTLLLNADLSRLANYLNPDKKKLAAKGITSVRSRVTNLTELLPGITHEQVCEAITEAFFAHYGERVEAEIISPNKTPDLPNFAETFARQSSWEWNFGQAPAFSHLLDERFTWGGVELHFDVEKGHITRAQVFTDSLNPAPLEALAGRLQGCLYRADMLQQECEALLVDFPEQEKELRELSAWMAGAVR
[1]
  Km of Lp1A-catalyzed lipoylation (HPLC, Michaelis-Menten): 13.32 ± 1.78 µM
  catalytic efficiency (kcat/Km) for lipoic acid ligation: The catalytic efficiency (kcat/Km) 0.99 µM^-1 min^-1)
  kcat of Lp1A-catalyzed lipoylation (HPLC, Michaelis-Menten): 0.22 ± 0.01 s⁻¹
[2]
  percent conversion to lipoylated product (HPLC, 50 nM Lp1A, 1 h): When fused to the C- rather than N-terminus of HP1, the activity of LAP2 decreased somewhat, but was still higher than all other LAP sequences at the N-terminus
[3]
  Km (estimate from HPLC measurements): the Km for LAP1 is estimated to be >200 µM
[4]
  percent conversion to lipoylated product (HPLC, 50 nM Lp1A, 1 h): As in the cellular assays, LAP2 is the best sequence

From patent US20110130348
